Consider six molecules from patent US20240166737A1 (Janssen / Centocor, published 2024).

One may read the IC50 as the concentration that inhibits the measured activity by half. A low value points to greater potency in that assay. What is called Kd is a measure of binding affinity in units of concentration. Broadly, the EC50 is the concentration giving half of the maximal effect. For orientation: EC50 (read off the curve) means the midpoint of the concentration-response curve. The low end stands for higher potency in that assay, the high end for lower potency in that assay.

The target in assay [1] is T1, human MSLN on the cell surface (human, UniProt Q13421 296-598).
T1 construct: on cells stands the processed GPI-anchored 40 kDa MSLN; also called membrane MSLN; MSLN on H838, OVCAR-8 (OVCAR8), OVCAR-8 K1/C8, SK-OV-3 cells
The assay is described as follows: high content imaging, surface staining of OVCAR8 cells. As for the experimental part: OVCAR8 cells were cultured in RPMI 1640 medium supplemented with 10% FCS, 1% L-glutamine and 1% Gentamycin and seeded in Greiner CELLSTAR plate one day before experiment. 24 h after seeding, antibody mixture was prepared by diluting MSLN and control antibodies in Table 21 in full media containing CellMask™ Deep Red Plasma Membrane Stain (ThermoFisher, C10046) in 12 concentrations each with 3 folds dilution starting from 20 μg/ml and 20 μl of which were added directly to the cells in 20 μl. Antibodies were allowed for binding to the cell surface for 2h inside the incubator (37°) C. and the surface bound antibodies were fixed for 15 min at RT by directly adding 30 ul of 10% Formaldehyde (04018-1, Polysciences). Afterwards residual Formaldehyde was removed by washing the cells twice with PBS and the primary antibodies were stained with secondary antibodies (Alexa Fluor 488 goat anti-human IgG, Invitrogen, A11013) complemented with Hoechst 33342 (H3570, ThermoFisher) and HCS CellMask™ Deep Red Stain (ThermoFisher, H32721) in PBS for 1h at RT. After removing unbound antibodies and other dyes by washing the cells 3 times with PBS cells were imaged on the CellVoyager 7000 (Yokogawa, Tokyo, Japan) using a 40×/0.95 objective. Of each well, 9 fields were imaged. Image analysis was performed with Acapella (PerkinElmer, Waltham, MA, USA) and the results stored in Phaedra (OpenAnalytics, Antwerp, Belgium). Data analysis was done in R (www.r-project.org).
The data was then fitted using the four-parameter logistic using least-squares regression, keeping the lower boundary fixed at 0.

The target in assay [2] is T2, 7 AA stub (a.a. 297-303 of SEQ ID NO: 247) (human).
T2 peptide: SMQEALS
The assay is described as follows: SPR, mAb captured, peptide injected. As for the experimental part: (§1) The binding was assessed by SPR. Briefly, GAH-Fc was used to capture mAbs on C4 sensor chip followed by antigen injection starting at 30 nM (14 amino acid stub), 100 nM (10-13 amino acid stubs), or 1000 nM (7-9 amino acid stubs) progressing in a 3-fold dilution series in single cycle kinetics mode. HBSP+0.01% BSA was used in the assay.
Background: Surface plasmon resonance follows binding to a sensor surface in real time, without labels.

Assay [3] addresses T3, 13 AA stub (a.a. 291-303 of SEQ ID NO: 247) (human).
T3 peptide: YLVLDLSMQEALS
Kind of assay: SPR, mAb captured, peptide injected. As for the experimental part:
as §1

For assay [4], the target named is T4, 14 AA stub (a.a. 290-303 of SEQ ID NO: 247) (human).
T4 peptide: GYLVLDLSMQEALS
Kind of assay: SPR, mAb captured, peptide injected. On the procedure:
as §1

Assay [5] deals with T5, 10 AA stub (a.a. 294-303 of SEQ ID NO: 247) (human).
T5 peptide: LDLSMQEALS
Kind of assay: SPR, mAb captured, peptide injected. As for the experimental part:
as §1

Assay [6] has as its target T6, 9 AA stub (a.a. 295-303 of SEQ ID NO: 247) (human).
T6 peptide: DLSMQEALS
The assay is described as follows: SPR, mAb captured, peptide injected. As for the experimental part:
as §1

The target of assay [7] is T7, 11 AA stub (a.a. 293-303 of SEQ ID NO: 247) (human).
T7 peptide: VLDLSMQEALS
Kind of assay: SPR, mAb captured, peptide injected. On the procedure: as §1

In assay [8] the target is T8, 12 AA stub region peptide LVLDLSMQEALS (human).
T8 construct: free N-terminus; also called 12 AA Peptide
T8 peptide: LVLDLSMQEALS
The assay is described as follows: SPR, mAb captured, peptide injected. On the procedure: as §1

Assay [9] has as its target T9, 8 AA stub (a.a. 296-303 of SEQ ID NO: 247) (human).
T9 construct: also called 8 AA Peptide; peptide of the last 8 C-terminal amino acids
T9 peptide: LSMQEALS
The assay is described as follows: competition of OVCAR8 cell binding by the peptide.

Another assay has as its target huDesmin, recombinant (human, UniProt P17661 1-470, limits assumed). The assay is described as follows: SPR.
The target in assay [10] is T10, MSNW10, recombinant full length human MSLN (human, UniProt Q13421 296-598).
T10 construct: also called MSNW10.002; FL-MSLN
The assay is described as follows: SPR, recombinant full-length human MSLN.

Assay [11] has as its target T11, MSNW11, recombinant soluble (shed) MSLN lacking the C-terminal 7 AAs (human, UniProt Q13421 296-591).
T11 construct: domain: soluble MSLN lacking the C-terminal 7 AAs; also called MSNW11.002; soluble MSLN
Kind of assay: H838 cell binding with shed MSLN (MSNW11) added. From the text:
Table 16 lists the immunization campaigns, antigens used, and number of clones returned at each stage of screening. Clones from which antibody sequences were successfully recovered were first screened for binding to recombinant full length human MSLN (MSNW10) and H838 cells that express MSLN on the cell surface. Binders were further screened for binding to cells in the presence of recombinant soluble MSLN lacking the C-terminal 7 AAs (MSNW11). This form of recombinant MSLN represented the product of cleavage at the closest cleavage site to the C-terminus known at the time, therefore, it theoretically represented the longest form of shed MSLN. The final concentration of shed MSLN in the assays was 100 nM.

The target of assay [12] is T1, human MSLN on the cell surface. The assay is described as follows: estimated from cell binding, not SPR; lower end of the range.
Assay [13] deals with T9, 8 AA stub (a.a. 296-303 of SEQ ID NO: …). Kind of assay: SPR, mAb captured, peptide injected. On the procedure:
as §1

Assay [14] deals with T1, human MSLN on the cell surface. Kind of assay: estimated from cell binding, not SPR; upper end of the range.
In assay [15] the target is T10, MSNW10, recombinant full length human …. Kind of assay: SPR, additional experiments.
The target of assay [16] is T12, recombinant CD3 (UniProt P07766 23-126).
T12 construct: also called CD3 (SPR)
The assay is described as follows: SPR; lower end of the range.

In assay [17] the target is T12, recombinant CD3. Kind of assay: SPR; upper end of the range.
Assay [18] concerns the target T13, CD3 epsilon on human T-cells (human, UniProt P07766 23-207).
T13 construct: part of the TCR-CD3 complex on T cells; also called CD3 on T cells
The assay is described as follows: T cell binding.

Assay [19] deals with T13, CD3 epsilon on human T-cells. The assay is described as follows: cell-based or functional assay.
Assay [20] has as its target T1, human MSLN on the cell surface. Kind of assay: flow cytometry (MFI PE) on OVCAR-8 cells.
Assay [21] has as its target T13, CD3 epsilon on human T-cells. Kind of assay: T-cell binding assay, FIG. 15.
Assay [22] has as its target human MSLN on the cell surface (human, UniProt Q13421 296-598). The assay is described as follows: flow cytometry (MFI PE) on OVCAR-8 cells. In general terms: A flow cytometer gives signals particle by particle.
The target of assay [23] is T12, recombinant CD3. The assay is described as follows: SPR.

T13 sequence (P07766 23-207 limits assumed): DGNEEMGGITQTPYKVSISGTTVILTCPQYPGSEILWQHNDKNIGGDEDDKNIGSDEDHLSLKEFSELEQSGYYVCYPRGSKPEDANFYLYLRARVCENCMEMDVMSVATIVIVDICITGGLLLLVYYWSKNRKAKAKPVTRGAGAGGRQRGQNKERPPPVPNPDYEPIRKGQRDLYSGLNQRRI
T12 sequence (P07766 23-126): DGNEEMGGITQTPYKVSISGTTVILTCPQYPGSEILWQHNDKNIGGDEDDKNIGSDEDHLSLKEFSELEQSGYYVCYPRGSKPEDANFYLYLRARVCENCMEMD
T10 sequence (Q13421 other isoform, or with tags, fused parts or gaps limits assumed): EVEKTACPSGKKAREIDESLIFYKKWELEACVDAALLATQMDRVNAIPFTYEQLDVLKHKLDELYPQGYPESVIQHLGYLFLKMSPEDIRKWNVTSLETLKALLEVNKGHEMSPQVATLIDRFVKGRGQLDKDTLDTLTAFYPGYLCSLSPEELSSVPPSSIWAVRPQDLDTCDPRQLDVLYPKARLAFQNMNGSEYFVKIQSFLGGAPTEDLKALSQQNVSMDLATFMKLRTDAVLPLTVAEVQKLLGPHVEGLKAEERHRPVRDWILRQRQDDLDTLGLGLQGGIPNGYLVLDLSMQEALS
T11 sequence (Q13421 other isoform, or with tags, fused parts or gaps limits assumed): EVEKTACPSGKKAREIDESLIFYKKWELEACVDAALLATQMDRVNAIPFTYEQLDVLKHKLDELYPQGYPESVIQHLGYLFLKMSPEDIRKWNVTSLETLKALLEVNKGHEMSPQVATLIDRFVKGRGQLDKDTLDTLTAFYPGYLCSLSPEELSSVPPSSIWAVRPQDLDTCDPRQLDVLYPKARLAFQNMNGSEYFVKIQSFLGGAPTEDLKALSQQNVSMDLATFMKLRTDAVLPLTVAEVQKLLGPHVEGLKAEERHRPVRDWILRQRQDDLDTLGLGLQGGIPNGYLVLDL
Chain of huDesmin, recombinant (P17661 whole entry): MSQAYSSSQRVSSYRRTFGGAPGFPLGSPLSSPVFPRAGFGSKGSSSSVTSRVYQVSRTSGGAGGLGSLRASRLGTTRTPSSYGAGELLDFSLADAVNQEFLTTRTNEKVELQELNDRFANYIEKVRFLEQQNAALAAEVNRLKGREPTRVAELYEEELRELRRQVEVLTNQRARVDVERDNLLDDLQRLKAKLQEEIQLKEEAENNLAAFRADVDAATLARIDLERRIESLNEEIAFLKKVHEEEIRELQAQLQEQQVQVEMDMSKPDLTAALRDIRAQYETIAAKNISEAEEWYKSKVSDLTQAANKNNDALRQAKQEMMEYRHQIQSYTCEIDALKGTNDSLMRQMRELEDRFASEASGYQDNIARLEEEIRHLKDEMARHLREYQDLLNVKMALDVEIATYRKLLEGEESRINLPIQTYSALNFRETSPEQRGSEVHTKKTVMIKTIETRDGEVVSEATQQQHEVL

B1: MSNB71 (antibody, V domains shown)
VH: QVQLQQSGPGLVMSSQTLSLTCAISGDSVSSSSVAWNWIRQSPSRGLQWLGRTYFRSKWYYDYAVSVKSRITINPDTSKNQFSLQLNSVTPEDTAVYYCSRGIVGALDYWGQGTLVTVSS
VL: DIVMTQSPLSLPVTPGEPASISCRSSQSLLFTNGYDSLDWYLQKPGQSPQLLIYLVSNRASGVPDRFSGSGSGTEFTLKISRVEADDVGVYFCMQGIRTPFTFGPGTKLEIK
notes: mAb from Ablexis mouse; also called MSNB71.004
For the molecule B1, the IC50 in [1] was 0.0713 µg/mL. Also, the “Maximum Value (arbitrary units)” value in [1] came out at 1.54e+07 arbitrary units. For the same molecule, the binding result is listed as “no binding (tested: 1000 nM)” in assay [2]; “no binding (tested: 100 nM)” in assay [5]; “no binding (tested: 1000 nM)” in assay [6]; “no binding (tested: 100 nM)” in assay [7]; “no binding” in [9]; “binds” with huDesmin, recombinant. Also, the binding result in assay [11] is “no binding (tested: 100 nM)”. Also, the Kd came out at 0.469 nM in assay [3], 0.364 nM in [4], 0.692 nM in assay [8] and 0.2 nM in assay [10].

B2: MSLNB568 (antibody, V domains shown)
VH: QVQLQQSGPGLVKPSQTLSLTCGISGDSVSSSSVAWNWIRQSPSRGLEWLGRTYYRSKWYNDYAISVRSRVTINPDTSKNQFSLQLNSVTPEDTAVYYCSRGVVGALDYWGQGTLVTVSS
VL: DIVMTQSPLSLTVTPGEPASISCRSSQSLLFTNGYNSLDWYLQKPGQSPQFLIYLVSNRASGVPDRFSGSGSGTDFTLKISRVEAEDVGVYYCMQALRTPYTFGQGTKVEIK
notes: mAb; also called MSLNB568.001; MSNB568
Turning to B2, the equilibrium dissociation constant (Kd) in assay [12] is 1 to 5 nM; in [3], 2.64 nM; in [4] it was 1.61 nM; in assay [8], 2.33 nM; in assay [14], 1 to 5 nM; in [15], 0.5 nM. The IC50 in assay [1] stood at 0.0764 µg/mL. In addition, in assay [1], the “Maximum Value (arbitrary units)” value was determined as 1.7e+07 arbitrary units. Besides, the binding result in assay [2] is on record as “no binding (tested: 1000 nM)”; in assay [5], “no binding (tested: 100 nM)”; in assay [6] it was “no binding (tested: 1000 nM)”; in assay [7], “no binding (tested: 100 nM)”; in assay [13], “no binding (tested: 1000 nM)”; in assay [11] it was “no binding (tested: 100 nM)”.

B3: CD3W245-HL-ScFv (scFv)
scFv: EVQLVESGGGLVKPGGSLRLSCAASGFTFSRYNMNWVRQAPGKGLEWVSSISTSSNYIYYADSVKGRFTFSRDNAKNSLDLQMSGLRAEDTAIYYCTRGWGPFDYWGQGTLVTVSSGGSEGKSSGSGSESKSTGGSDIQMTQSPSSLSASVGDRVTITCRARQSIGTAIHWYQQKPGKAPKLLIKYASESISGVPSRFSGSGSGTDFTLTISSLQPEDFATYYCQQSGSWPYTFGQGTKLEIK
Take B3: the values for the Kd with recombinant CD3 [16] and in the assay with recombinant CD3 [17] were no less than 0.5 nM and no more than 1 nM, respectively. This molecule also had an EC50 in assay [18] of 1 to 3 nM.

B4: MNC3B193 (bispecific antibody)
scFv: DIQMTQSPSSLSASVGDRVTITCRARQSIGTAIHWYQQKPGKAPKLLIKYASESISGVPSRFSGSGSGTDFTLTISSLQPEDFATYYCQQSGSWPYTFGQGTKLEIKGGSEGKSSGSGSESKSTGGSEVQLVESGGGLVKPGGSLRLSCAASGFTFSRYNMNWVRQAPGKGLEWVSSISTSSNYIYYADSVKGRFTFSRDNAKNSLDLQMSGLRAEDTAIYYCTRGWGPFDYWGQGTLVTVSS
VH: QVQLVESGPGQVKPSQTLSLTCAISGDSVSSNSAAWNWIRQSPSRGLEWLGRTYYRSKWYNDYAVSVKSRITINPDTSKNQFSLQLNSVTPEDTAVYYCARRDYSSGGFDYWGQGTTVTVSS
VL: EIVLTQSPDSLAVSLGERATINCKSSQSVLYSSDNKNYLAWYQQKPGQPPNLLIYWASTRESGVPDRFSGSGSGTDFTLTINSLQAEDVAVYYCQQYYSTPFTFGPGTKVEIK
notes: Bipod: MSNB457 Fab x CD3W245 LH scFv-Fc; also called CD3W245 LH containing Bipod
With B4, in assay [19], the “AC90 [nM], cytotoxicity, 1:1 E:T, 72 hours” value was 0.25 nM; the “Max. Activity, cytotoxicity, 1:1 E:T, 72 hours” value amounted to 91%; the “qAC50 [nM], cytotoxicity, 1:1 E:T, 72 hours” value is 0.1 nM. Also, in assay [20], the “EC50 (read off the curve)” value is roughly 8 nM. Moreover, the EC50 in assay [21] was found to be 46 nM.

B5: MNC3B192 (bispecific antibody)
chain 1: QSALTQPASVSGSPGQSITISCTGTSSNIGTYKFVSWYQQHPGKAPKVMIYEVSKRPSGVSNRFSGSKSGNTASLTISGLQAEDEADYYCVSYAGSGTLLFGGGTKLTVLGGSEGKSSGSGSESKSTGGSQVQLQQSGPGLVKPSQTLSLTCAISGDSVFNNNAAWSWIRQSPSRGLEWLGRTYYRSKWLYDYAVSVKSRITINPDTSKNQFSLQLNSVTPEDTAVYYCARGYSSSFDYWGQGTLVTVSS
chain 2: QVQLVESGPGQVKPSQTLSLTCAISGDSVSSNSAAWNWIRQSPSRGLEWLGRTYYRSKWYNDYAVSVKSRITINPDTSKNQFSLQLNSVTPEDTAVYYCARRDYSSGGFDYWGQGTTVTVSS
chain 3: not shown
As to B5, the “EC50 (read off the curve)” value in assay [22] is roughly 8 nM.

B6: CD3W245-LH-ScFv (scFv)
scFv: DIQMTQSPSSLSASVGDRVTITCRARQSIGTAIHWYQQKPGKAPKLLIKYASESISGVPSRFSGSGSGTDFTLTISSLQPEDFATYYCQQSGSWPYTFGQGTKLEIKGGSEGKSSGSGSESKSTGGSEVQLVESGGGLVKPGGSLRLSCAASGFTFSRYNMNWVRQAPGKGLEWVSSISTSSNYIYYADSVKGRFTFSRDNAKNSLDLQMSGLRAEDTAIYYCTRGWGPFDYWGQGTLVTVSS
With B6, in the assay with recombinant CD3 [23], the Kd lay within 0.5 to 1 nM. The same molecule yielded an EC50 in assay [18] of 20 to 50 nM.
